Test results: the supplement of paper PMC10567573

B1: MIA2 (parent)
chain: NSISSDKEATVPCTEILTEKKDTI

Variants of: B1
Test: protein stability index of a GFP-peptide fusion (GPS, HEK-293T) (PSI 1-6); higher = more stable
Conditions: c terminus: a fixed tail appended
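Note: lentivirally expressed fusions sorted by FACS into six bins by GFP to DsRed ratio, PSI derived from sequencing read proportions per bin multiplied by bin number.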

Protein stability index, by site and new letter:
C13: P 5.35 | T 5.66 | Q 5.57 | D 5.54 | E 5.57 | S 5.65 | K 5.4 | W 5.06 | G 5.49 | Y 5.01 | H 5.15 | L 5.25 | N 5.7 | V 5.58 | F 5.28 | M 5.59 | A 5.27 | R 4.99 | I 5.54
P12: E 5.57 | Q 5.4 | W 4.58 | V 5.35 | H 5 | L 4.54 | C 5.28 | G 5.53 | M 5.21 | N 5.51 | A 5.49 | K 5.47 | I 5.11 | R 5.38 | D 5.53 | F 4.92 | Y 4.34 | T 5.48 | S 5.63
L17: C 5.51 | D 5.46 | A 5.8
I16: R 5.57 | N 5.47 | Q 5.65 | L 5.51 | K 5.64 | M 5.49 | F 5.19 | Y 5.12 | H 5.49 | V 5.45 | W 5.26 | D 5.81 | C 5.27 | G 5.11 | S 5.41 | E 5.62 | P 5.52 | A 5.53 | T 5.63
A9: D 5.11 | G 5.42 | H 5.32 | C 4.71 | W 4.79 | R 5.23 | V 5.17 | L 5.32 | S 5.31 | N 4.88 | M 5.59 | T 5.38 | P 5.38 | Y 5.05 | F 5.36 | E 5.28 | K 5.47 | Q 5.25 | I 5.3
T14: D 5.88 | M 5.12 | S 5.36 | N 5.42 | H 5.45 | R 5.33 | K 5.49 | Q 5.13 | F 4.93 | V 5.42 | E 5.49 | G 5.09 | L 4.99 | W 4.74 | I 5.21 | Y 5.1 | A 5.36 | P 5.45 | C 5.39
E15: K 4.92 | I 4.25 | Q 5.32 | M 4.68 | D 5.45 | A 5.24 | S 5.34 | T 5.46 | Y 4.68 | G 4.92 | R 4.9 | H 5.04 | P 5.16 | V 4.66 | N 5.23 | C 4.8 | W 4.13 | F 4.46 | L 4.57
T10: P 5.32 | Q 5.48 | N 5.6 | E 5.82 | R 4.85 | I 5.2 | L 5.43 | G 5.4 | F 5.27 | A 5.65 | Y 4.63 | K 5.24 | M 5.17 | V 5.29 | D 5.61 | H 5.48 | C 5.5 | W 5.07 | S 5.72
E8: T 5.17 | R 5.74 | P 5.27 | L 5.31 | N 5.31 | K 5.46 | W 4.73 | Q 5.52 | V 4.99 | S 5.46 | Y 4.95 | M 5.14
V11: H 4.62 | Y 4.89 | E 5.52 | S 5.22 | F 5.43 | Q 5.53 | D 5.72 | K 5.59 | R 5.28 | I 5.28 | G 5.07 | M 5.59 | T 5.67 | P 5.55 | L 5.41 | N 5.49 | W 5.22 | A 5.38 | C 4.84
